Laboratory results as given in PMC6220978, “Induced conformational changes activate the peptidoglycan synthase PBP1B” (Molecular Microbiology, 2018).

T1: PBP1B R109G (E. coli, UniProt P02919 46-844, R109G)
T1 construct: PBP1B, E. coli, residues 46-844, made by mutagenesis of pDML924; source: E. coli BL21(DE3), purified (membrane extract, HisTrap, thrombin, HiTrap SP ion exchange)
T1 sequence (looked up): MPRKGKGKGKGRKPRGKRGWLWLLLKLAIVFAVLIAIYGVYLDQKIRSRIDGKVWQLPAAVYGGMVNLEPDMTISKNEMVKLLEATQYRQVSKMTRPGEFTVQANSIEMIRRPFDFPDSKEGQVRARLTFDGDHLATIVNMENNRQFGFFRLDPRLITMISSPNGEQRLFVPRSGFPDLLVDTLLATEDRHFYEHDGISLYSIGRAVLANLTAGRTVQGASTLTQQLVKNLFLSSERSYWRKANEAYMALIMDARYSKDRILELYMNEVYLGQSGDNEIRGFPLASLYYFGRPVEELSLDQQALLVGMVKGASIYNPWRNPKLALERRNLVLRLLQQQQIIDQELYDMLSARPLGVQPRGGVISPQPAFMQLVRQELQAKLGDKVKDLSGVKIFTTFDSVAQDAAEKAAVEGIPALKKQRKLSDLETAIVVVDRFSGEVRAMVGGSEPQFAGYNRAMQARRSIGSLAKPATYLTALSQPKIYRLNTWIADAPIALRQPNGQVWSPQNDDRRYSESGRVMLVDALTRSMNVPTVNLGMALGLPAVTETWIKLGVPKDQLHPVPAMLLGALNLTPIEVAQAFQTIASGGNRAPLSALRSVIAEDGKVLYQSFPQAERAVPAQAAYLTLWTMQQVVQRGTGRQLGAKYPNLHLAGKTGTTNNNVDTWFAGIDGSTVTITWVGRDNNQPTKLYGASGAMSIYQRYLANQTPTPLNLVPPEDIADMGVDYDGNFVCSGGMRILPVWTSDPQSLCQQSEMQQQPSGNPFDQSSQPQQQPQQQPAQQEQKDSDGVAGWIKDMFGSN

T2: PBP1B P162C/I644C (E. coli, UniProt P02919 46-844, P162C | I644C)
T2 construct: PBP1B, E. coli, residues 46-844, made by mutagenesis of pDML924; Disulphide bridge between C162 and C644 (no free thiol groups detected); reduced in the SPR assay with 2 mM TCEP; source: E. coli BL21(DE3), purified (membrane extract, HisTrap, thrombin, HiTrap SP ion exchange)
T2 sequence (looked up): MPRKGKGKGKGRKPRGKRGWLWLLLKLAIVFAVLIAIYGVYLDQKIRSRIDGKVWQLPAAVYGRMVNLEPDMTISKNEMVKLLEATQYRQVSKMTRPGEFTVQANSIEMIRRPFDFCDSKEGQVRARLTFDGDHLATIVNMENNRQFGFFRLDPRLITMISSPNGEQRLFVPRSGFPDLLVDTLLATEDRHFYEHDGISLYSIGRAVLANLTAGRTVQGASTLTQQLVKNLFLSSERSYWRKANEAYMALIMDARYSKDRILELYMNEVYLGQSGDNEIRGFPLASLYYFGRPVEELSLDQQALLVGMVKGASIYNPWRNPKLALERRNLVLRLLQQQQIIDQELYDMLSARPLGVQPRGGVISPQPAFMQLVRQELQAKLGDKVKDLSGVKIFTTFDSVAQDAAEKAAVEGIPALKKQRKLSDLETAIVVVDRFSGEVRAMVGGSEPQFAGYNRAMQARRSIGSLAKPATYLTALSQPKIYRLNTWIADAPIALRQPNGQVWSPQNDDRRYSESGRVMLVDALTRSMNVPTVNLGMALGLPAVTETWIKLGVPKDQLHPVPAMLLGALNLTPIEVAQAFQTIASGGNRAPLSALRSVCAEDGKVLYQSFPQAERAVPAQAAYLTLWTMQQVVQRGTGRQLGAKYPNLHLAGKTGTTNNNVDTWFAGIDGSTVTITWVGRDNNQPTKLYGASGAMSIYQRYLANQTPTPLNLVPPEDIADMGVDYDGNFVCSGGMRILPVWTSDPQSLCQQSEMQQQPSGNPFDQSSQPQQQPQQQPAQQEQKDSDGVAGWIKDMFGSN


Assays:
Settings in all cases: both partners purified
PBP1B R109G [1] = target: T1, PBP1B R109G; assay: SPR; PBP1B versions immobilised to the chip surface; CpoB versions injected from either 3.9 nM to 2 μM or from 78 nM to 40 μM; apparent KD by non-linear regression, at least three independent experiments
PBP1B R109G [2] = target: T1, PBP1B R109G; assay: SPR; PBP1B versions immobilised to the chip surface; LpoB injected from 19.5 nM to 10 μM; apparent KD by non-linear regression, at least three independent experiments
PBP1B P162C/I644C = target: T2, PBP1B P162C/I644C; assay: as above

| Kd (PBP1B R109G [1]) [nM] | Kd (PBP1B R109G [2]) [nM] | Kd (PBP1B P162C/I644C) [nM] | Binder |
| --- | --- | --- | --- |
| 70 |  |  | CpoB (full length) (natural protein, E. coli, UniProt P45955 27-263, looked up, CpoB, E. coli; The coiled-coil construct begins at residue 27, so the purified 'full length' protein may lack the signal peptide (surmise); source: E. coli BL21(DE3), purified (HisTrap, Superdex 200), as in Gray et al. 2015) QAPISSVGSGSVEDRVTQLERISNAHSQLLTQLQQQLSDNQSDIDSLRGQIQENQYQLNQVVERQKQILLQIDSLSSGGAAAQSTSGDQSGAAASTTPTADAGTANAGAPVKSGNANTDYNAAIALVQDKSRQDDAMVAFQNFIKNYPDSTYLPNANYWLGQLNYNKGKKDDAAYYFASVVKNYPKSPKAADAMFKVGVIMQDKGDTAKAKAVYQQVISKYPGTDGAKQAQKRLNAM |
|  | 3090 | 213 | LpoB (natural protein, E. coli, LpoB, E. coli; also called lipoprotein LpoB; source: E. coli BL21(DE3), purified (HisTrap, Superdex 200), as in Egan et al. 2014) VGQREPAPVEEVKPAPEQPAEPQQPVPTVPSVPTIPQQPGPIEHEDQTAPPAPHIRHYDWNGAMQPMVSKMLGADGVTAGSVLLVDSVNNRTNGSLNAAEATETLRNALANNGKFTLVSAQQLSMAKQQLGLSPQDSLGTRSKAIGIARNVGAHYVLYSSASGNVNAPTLQMQLMLVQTGEIIWSGKGAVSQQ |
